Patent publication US20260085114A1 (KYINNO BIOTECHNOLOGY, published 2026)

Key:
[1] = target: T1, human GPRC5D (G protein-coupled receptor class C group 5 member D), on cells (human, UniProt Q9NZD1 1-345); assay: cell-based or functional assay
[2] = target: T1, human GPRC5D (G protein-coupled …); assay: FACS on MM.1R multiple myeloma cells
Protocol: (§1) 100 μl of FACS buffer was then added to each FACS tube for resuspension. 5 μl of PE-labeled, anti-murine Fc tagged secondary antibody (Biolegend, catalog number 409304) was added according to instructions, and incubated at 4° C. in the dark for 30 mins. Then 1 ml of FACS buffer was added, and centrifuged at 1200 rpm at room temperature for 5 mins. The supernatant was discarded followed by washing three times.
(§2) The experimental process was as described in Example 4, and the cells used were replaced with multiple myeloma cells MM.1R (Kyinno, catalog number KC-0619) and MOLP8 (Kyinno, catalog number KC-0622). […] Control tube 1 (no antibody and secondary antibody, adding only cell suspension) and Control tube 2 (no antibody, adding only cell suspension and secondary antibody) were included.

[3] = target: T1, human GPRC5D (G protein-coupled …); assay: FACS on MOLP8 multiple myeloma cells
Protocol: as §1, §2

[4] = target: T1, human GPRC5D (G protein-coupled …); assay: FACS on 293T cells expressing human GPRC5D
Protocol: as §1
Control tube 1 (no antibody and secondary antibody, adding only the cell suspension) and Control tube 2 (no antibody, adding only the cell suspension and the secondary antibody) were included.

[5] = target: T2, monkey (cyno) GPRC5D, on 293T cells (monkey (cyno)); assay: FACS on 293T cells expressing monkey (cyno) GPRC5D
T2 construct: whole, on cells; also called monkey GPRC5D
Protocol: as §1
The experimental process was as described in Example 4. […] Control tube 1 (no antibody and secondary antibody, adding only cell suspension) and Control tube 2 (no antibody, adding only cell suspension and secondary antibody) were included.

[6] = target: T3, human GPRC5A, on 293T cells (human, UniProt Q8NFJ5 1-357); assay: FACS on 293T-GPRC5A cells, antibody at 2 µg/mL; control tubes 8.30 and 8.41
T3 construct: whole, on cells; also called 293T-GPRC5A
Protocol: as §1
(§3) The experimental process was as described in Example 4, cells expressing other members of G protein-coupled receptor class C group 5 as follows were used: 293T cells expressing human GPRC5A, 293T-GPRC5A (Kyinno, catalog number KC-1888), 293T cells expressing human GPRC5B, 293T-GPRC5B (Kyinno, catalog number KC-1854), and 293T cells expressing human GPRC5C, 293T-GPRC5C (Kyinno, catalog number KC-1889). […] Control tube 1 (no antibody and secondary antibody, adding only cell suspension) and Control tube 2 (no antibody, adding only cell suspension and secondary antibody) were included.

[7] = target: T4, human GPRC5B, on 293T cells (human, UniProt Q9NZH0 29-403); assay: FACS on 293T-GPRC5B cells, antibody at 2 µg/mL; control tubes 8.55 and 8.26
T4 construct: whole, on cells; also called 293T-GPRC5B
Protocol: as §1, §3

[8] = target: T5, human GPRC5C, on 293T cells (human, UniProt Q9NQ84 24-441); assay: FACS on 293T-GPRC5C cells, antibody at 2 µg/mL; control tubes 8.86 and 8.73
T5 construct: whole, on cells; also called 293T-GPRC5C
Protocol: as §1, §3

[9] = target: T6, human GPRC5D protein (KACTUS, catalog number GPR-HM05P) (human, UniProt Q9NZD1 1-345, limits assumed); assay: Fortebio BLI, antibody captured on AHC chip, human GPRC5D protein as analyte
T6 construct: Bought reagent used as analyte in the Fortebio assay; the construct is not described
Protocol: Antibodies to be tested were prepared into solutions at concentration of 10 μg/mL using PBS buffer, and the antibodies were captured using the AHC chip according to Fortebio's instructions. The pre-prepared human GPRC5D proteins (KACTUS, catalog number GPR-HM05P) (protein starting at a highest concentration of 200 nM, 2-fold diluted, 6 gradients) were flowed through the chip, with the following specific conditions: flow rate 30 μl/min; antigen-antibody binding time 200 seconds, dissociation time 500 seconds. The measured results were fitted using the supporting software designed for the device to analyze the affinity between an antibody and an antigen.

[10] = target: T1, human GPRC5D (G protein-coupled …); assay: FACS, hybridoma supernatant on MM1R cells
[11] = target: T1, human GPRC5D (G protein-coupled …); assay: FACS, hybridoma supernatant on OPM2 cells
[12] = target: T7, Nalm6 cells (NALM6, Kyinno, catalog number KC-0626); assay: FACS, hybridoma supernatant on Nalm6 cells
T7 construct: Kept apart from human GPRC5D so that the low MFI values on this line are not laid to the GPRC5D pair

[13] = target: T1, human GPRC5D (G protein-coupled …); assay: FACS, hybridoma supernatant on NCI-H929 cells
Protocol: as §1

[14] = target: T1, human GPRC5D (G protein-coupled …); assay: FACS, hybridoma supernatant on 293T cells expressing human GPRC5D
Protocol: 293T cells expressing human GPRC5D as described above was prepared into a suspension at concentration of 1×10⁵ cells/ml in PBS containing 2% FBS.
1 ml of FACS buffer was added to each FACS tube, centrifuged at 1200 rpm for 5 mins. The supernatant was discarded followed by washing three times. At the same time, control tube 1 (no supernatant of the culture and the secondary antibody mentioned below, adding only cell suspension) and control tube 2 (no supernatant of the culture, adding only cell suspension and the secondary antibody mentioned below) were included.
as §1

[15] = target: T2, monkey (cyno) GPRC5D, on 293T cells; assay: FACS, hybridoma supernatant on 293T cells expressing monkey GPRC5D
Text: According to the method described in Example 4, the binding between the culture supernatant of the hybridoma cells and monkey GPRC5D was detected, except that the human GPRC5D-expressing cells were replaced with 293T cells expressing monkey GPRC5D (Kyinno, catalog number KC-1586).

[16] = target: T1, human GPRC5D (G protein-coupled …); assay: cell ELISA, hybridoma supernatant on fixed BXPC-3 cells expressing human GPRC5D
Protocol: BXPC-3 cells expressing human GPRC5D (Kyinno, catalog number KC-1717) were prepared into a suspension at concentration of 1×10⁵ cells/ml in PBS containing 2% FBS. The suspension was added to a 96-well plate at 100 μl/well and cultured overnight at 37° C. The wells were cleared of their contents and washed three times with washing solution. 80 μl of 4% tissue fixative (Beyotime, catalog number P0099) was added to each well followed by fixing at room temperature for 15 min, washing twice with PBS and drying. 250 μl of blocking solution containing 2% BSA was added to each well followed by incubation at 37° C. for 1 hr and washing three times with PBS. 50-100 μl of the supernatant of the hybridoma cell culture was added to each well. A positive control (adding serum from fusion mice), a negative control (adding serum from normal mice) and a blank control (adding culture medium) were included. The wells were incubated at 37° C. for 1-2 hrs, washed, and dried. Then, the enzyme-labeled secondary antibody, HRP-labeled goat anti-mouse IgG (SIGMA, catalog number A9044-2 ml) was added at dilution of 1:10000 and 50-100 μl/well. The wells were incubated at 37° C. for 1-2 hrs, washed, and dried. 50-100 μl of freshly prepared developing solution TMB was added to each well and incubated at 37° C. for 10-30 mins.
2 mol/L H₂SO₄ was added to terminate the reaction, and the OD value was read on an enzyme-linked immunosorbent reader.

[17] = target: human CD3 protein (KACTUS) (human); assay: Fortebio BLI, antibody captured on AHC chip, human CD3 protein as analyte
Sequence of human CD3 protein (KACTUS) (human) (chain, as listed by the source): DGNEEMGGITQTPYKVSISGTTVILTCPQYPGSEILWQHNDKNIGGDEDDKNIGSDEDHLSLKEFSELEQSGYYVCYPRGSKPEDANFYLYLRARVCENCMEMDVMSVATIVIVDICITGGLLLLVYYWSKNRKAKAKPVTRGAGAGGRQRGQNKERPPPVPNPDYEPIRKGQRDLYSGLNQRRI

T3 sequence (Q8NFJ5 whole entry): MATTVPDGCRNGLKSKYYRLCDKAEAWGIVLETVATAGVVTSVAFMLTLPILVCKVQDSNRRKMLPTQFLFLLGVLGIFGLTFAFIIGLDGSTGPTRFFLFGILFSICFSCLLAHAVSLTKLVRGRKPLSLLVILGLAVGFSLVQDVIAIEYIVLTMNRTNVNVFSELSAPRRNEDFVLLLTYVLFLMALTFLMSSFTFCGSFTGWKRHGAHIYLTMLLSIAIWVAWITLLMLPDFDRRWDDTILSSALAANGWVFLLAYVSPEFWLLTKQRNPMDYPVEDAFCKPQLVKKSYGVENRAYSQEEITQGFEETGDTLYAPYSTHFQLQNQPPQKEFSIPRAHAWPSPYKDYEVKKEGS
T4 sequence (Q9NZH0 29-403): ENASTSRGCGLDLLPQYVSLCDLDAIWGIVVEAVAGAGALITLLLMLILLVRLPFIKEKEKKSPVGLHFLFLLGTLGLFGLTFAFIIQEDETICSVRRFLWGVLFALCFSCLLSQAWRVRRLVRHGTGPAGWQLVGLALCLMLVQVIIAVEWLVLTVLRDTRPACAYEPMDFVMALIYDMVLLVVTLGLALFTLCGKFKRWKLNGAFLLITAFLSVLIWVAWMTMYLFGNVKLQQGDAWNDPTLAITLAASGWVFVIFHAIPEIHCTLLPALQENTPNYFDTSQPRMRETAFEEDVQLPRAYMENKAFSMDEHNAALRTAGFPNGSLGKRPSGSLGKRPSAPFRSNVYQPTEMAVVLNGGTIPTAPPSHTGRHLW
T6 sequence (Q9NZD1 whole entry): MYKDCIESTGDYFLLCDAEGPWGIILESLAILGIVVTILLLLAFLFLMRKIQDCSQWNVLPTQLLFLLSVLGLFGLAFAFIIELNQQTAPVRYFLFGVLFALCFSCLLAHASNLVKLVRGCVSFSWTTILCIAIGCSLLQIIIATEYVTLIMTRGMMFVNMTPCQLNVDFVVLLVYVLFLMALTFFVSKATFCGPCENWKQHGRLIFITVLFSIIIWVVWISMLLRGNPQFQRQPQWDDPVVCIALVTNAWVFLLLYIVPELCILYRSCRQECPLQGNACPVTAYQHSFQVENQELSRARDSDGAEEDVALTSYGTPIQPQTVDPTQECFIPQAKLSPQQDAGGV
T1 sequence (Q9NZD1 whole entry): as above
T5 sequence (Q9NQ84 24-441): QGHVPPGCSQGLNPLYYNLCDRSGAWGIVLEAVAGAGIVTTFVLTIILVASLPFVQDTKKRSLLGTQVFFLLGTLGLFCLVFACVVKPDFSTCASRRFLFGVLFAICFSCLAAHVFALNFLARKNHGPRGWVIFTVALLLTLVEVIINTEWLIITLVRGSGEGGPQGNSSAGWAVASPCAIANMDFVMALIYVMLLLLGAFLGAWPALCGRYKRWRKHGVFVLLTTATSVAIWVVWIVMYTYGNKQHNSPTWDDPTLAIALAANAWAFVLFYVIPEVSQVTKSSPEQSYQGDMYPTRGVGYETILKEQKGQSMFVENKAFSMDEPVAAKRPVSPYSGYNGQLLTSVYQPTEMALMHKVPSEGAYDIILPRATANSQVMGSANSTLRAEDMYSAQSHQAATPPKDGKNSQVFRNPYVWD

ADCC reporter (Jurkat-NFAT-luc-CD16-V158 luciferase), Top [1]	EC50 [2] [µg/mL]	MFI.Max [2] [MFI]	EC50 [3] [µg/mL]	MFI.Max [3] [MFI]	EC50 [4] [µg/mL]	MFI.Max [4] [MFI]	MFI.Max [5] [MFI]	FACS result [6]	FACS result [7]	FACS result [8]	Kd [9] [nM]	koff [9] [s⁻¹]	kon [9] [M⁻¹ s⁻¹]	EC50 [5] [µg/mL]	Binder	other results
18.4	0.571	185	0.964	78	0.228	9560	12.3	8.46	8.59	8.89	1.7	3.15e-05	18500	–	humanized antibody 26D1 (hz) (antibody, V domains shown) VH: QVQLVQSGAEVKKPGASVKVSCKASGYTFTSYTIQWIKQAPGQGLEWIGYIIPSSGYTNYNQKFKDKATLTADKSSNTAYMELSSLTSEDTAVYYCANNYGNWGFTYWGQGTTVTVSS VL: DIQMTQSPSTLSASVGDRVTITCKASQNVGSAVTWYQQKPGKAPRLLIYSASNRYTGVPDRFSGSGSGTEFTLTISSLQPDDFATYFCQQYSNYPLTFGQGTRLEIKR	ADCC reporter (Jurkat-NFAT-luc-CD16-V158 luciferase), EC50 [1]: 0.0452 µg/mL
–	–	–	–	–	–	–	–	–	–	–	–	–	–	–	murine antibody 24F5 (A3 antibody) (antibody, V domains shown, Tested as hybridoma cell culture supernatant; also called murine anti-24F5) VH: QVQLKESGPELVKPGASVKISCKASGYTFPYYVMHWVKQKPGQGLEWIGYINPYNDGTKYNEKFKGKAALTSDKSSSTAYMDLSSLTSEDSAVYYCARGGVRRYFDYWGQGTTLTVSS VL: DIQMTQTPSSLSASLGERVSLTCRASQDIGSNLNWLQQEPDGTIKRLIYATSSLDSGVPKRFSGSRSGSDYSLTISSLESEDFVDYYCLQYATFPYTFGGGTKLEIK	MFI.Max [10]: 991 MFI; EC50 [11]: 5.67 µg/mL; MFI.Max [11]: 1190 MFI; MFI.Max [12]: 106 MFI; MFI.Max [13]: 1100 MFI; EC50 [14]: 0.117 µg/mL; MFI.Max [14]: 9520 MFI; EC50 [15]: 0.268 µg/mL; MFI.Max [15]: 6260 MFI; OD value [16]: 1.54 OD
–	–	–	–	–	–	–	–	–	–	–	–	–	–	–	humanized anti-CD3 antibody SP34V1 (hz) (antibody, V domains shown) VH: QVQLVESGGGLVKPGGSLRLSCAASGFTFSTYAMNWVRQAPGKGLEWVGRIRSKYNNYATYYADSVKDRFTISRDDAKNSLYLQMNSLRAEDTAVYYCARHGNFGNSYVSYFAYWGQGTTVTVSS VL: DIQMTQSPSSLSASVGDRVTITCRSSTGAVTTSNYANWVQQKPGKAPKALIGGTNKRAPGVPSRFSGSLSGDDATLTISSLQPEDFATYYCALWYSNLWVFGQGTRLEIKR	Kd [17]: 18 nM; koff [17]: 0.00795 s⁻¹; kon [17]: 442000 M⁻¹ s⁻¹
25.4	0.0682	177	0.581	133	0.7	8910	3560	8.45	8.58	8.97	1.36	5.42e-05	39900	0.167	humanized antibody 24F5 (hz) (antibody, V domains shown) VH: QVQLVQSGAEVKKPGASVKVSCKASGYTFPYYVMHWVRQAPGQGLEWIGYINPYNDGTKYNEKFKGRATLTSDKSTSTAYMELSSLRSEDTAVYYCARGGVRRYFDYWGQGTTVTVSS VL: DIQMTQSPSTLSASVGDRVTITCRASQDIGSNLNWLQQKPGGTIKRLIYATSSLDSGVPSRFSGSRSGSEYTLTISSLQPDDFATYYCLQYATFPYTFGQGTRLEIKR	–
32.8	0.146	246	0.256	144	0.351	14800	6250	8.54	8.62	8.78	0.458	2.08e-05	45500	0.192	humanized antibody 6E97 (hz) (antibody, V domains shown) VH: QVQLVQSGAEVKKPGASVKVSCKASGYTFPYYVIHWVRQAPGQGLEWIGYINPYNAGTKYNEKFKGRATLTSDKSTSTAYMELSSLRSEDTAVYYCARGGVRRYFDYWGQGTTVTVSS VL: DIQLTQSPSTLSASVGDRVTITCRASQDIGSNLNWLQQKPGGTIKRLISATSSLDSGVPSRFSGSRSGSEYTLTISSLQPDDFATYYCLQYATFPYTFGQGTRLEIKR	–
24.5	0.09	150	0.313	128	0.283	8940	4260	8.34	8.54	8.48	< 0.001	< 1e-07	22600	0.378	humanized antibody 9D7 (hz) (antibody, V domains shown) VH: QVQLQESGPGLVKPSETLSLTCTVSGYSITSDYAWNWIRQPPGKGLEWMGYISYSGSATYSPSLKSRITISRDTSKNQFSLKLSSVTAADTAVYYCARGGIAGRGRWGAMDYWGQGTTVTVSS VL: DIQMTQSPSSLSASVGDRVTITCKASQNVGTNVAWYQQKPGQSPKALIYSASYRDSGVPDRFSGSGSGTDFTLTISSLQPEDFATYYCQQYKSYPLTFGQGTRLEIKR	–
